Reference: the supplement of paper PMC12764529

Assay: folding stability dG unfold (combined trypsin and chymotrypsin); higher = more stable
Experimental: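 Folding stability of de novo designed mini-proteins (<80 aa, no Cys; designed by TrROS, TrMRF, ProteinMPNN and the joint model) was measured by cDNA display proteolysis with trypsin and chymotrypsin. Each protease was used at 11 concentrations in a threefold dilution series plus a no-protease condition. K50 was inferred by Bayesian fitting of sequencing counts, and dG unfold was derived against a sequence-predicted unfolded-state K50 (Tsuboyama et al. method). Sequences shown include variable-length N-terminal GS-type padding (SAGGSAGG...) inside a display construct carrying a PA tag. Rows were kept only if the AF2 dimer inter-PAE was >15, to exclude likely homo-oligomers.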

Sequence | folding stability dG unfold [kcal/mol]
SAGGSAGGSAGEKPIYYRIKHRNPANGQKVKHEIPFPPNDADEIKEQMEKQPGIDEIEPFSAGGSAGGSAGG [r17_438_TrROS] | < -1
SAGGSAGGSAGGAKELADRMRDAGYEPEADPDSGKIEVRHPNPNGKRMKREINIPPEDISAGGSAGGSAGGS [r10_1173_TrROS] | < -1
SAGGSAGGSAGGDADKALPVGFELVEAETVELGDNPVLLVRLKGKNGEQLLLVPPDAPISAGGSAGGSAGGS [r10_968_TrMRF] | < -1
SAGGSAGGSAGGDKKAIEELVKKLPPDTKLAPVKLPDGKEKLIFVERREDGSRKALVLDSAGGSAGGSAGGS [r10_1017_TrMRF] | < -1
SAGGSAGGSAGGDNIKIDIDFDPGYGVFTSKIYPPNGGPISDLSIKIPPMSPEDLDKFKSAGGSAGGSAGGS [r10_717_TrROS] | < -1
SAGGSAGGSAGGDPNIEKTYKIKVAKGDKNGKIIKVIEKEIKVKTPEEAEKFAKELAKSSAGGSAGGSAGGS [r10_57_TrMRF] | < -1
SAGGSAGGSAGGEEERMWMFSVRVPDKPVMFPFDDLEKLAEEKGVPVKIEWARMPADDLKSAGGSAGGSAGG [r7_185_TrROS] | < -1
SAGGSAGGSAGGFPNMPIKEIKIDNPERVPGKPRVRIEFTFPGGPRKFMMPADDLQDMFSAGGSAGGSAGGS [r10_771_TrROS] | < -1
SAGGSAGGSAGGGMKKITISDPVKPGAVITFPLTGETITVPANSSVTITLTEPLPGTYDLSAGGSAGGSAGG [r7_234_JUSTAS] | < -1
SAGGSAGGSAGGGSPAEQLREMAKQIPPVEIRFPGPGKERTIPDPDNFQEKGWKITEIEFSAGGSAGGSAGG [r7_504_TrROS] | < -1
SAGGSAGGSAGGGSPNVVVEKKLTVNLPKDVKLDFPPEYEVTVTKGKNTYKITEKIIVNKSAGGSAGGSAGG [r7_584_JUSTAS] | < -1
SAGGSAGGSAGGIEVDPDYAMITFPIPPNETIKFKLPNEKLKIEVPPGKPISIYIPAKDSAGGSAGGSAGGS [r10_464_TrROS] | < -1
SAGGSAGGSAGGIRLSPEFRELLKDAPPSPGQKREINFPNGYQITYTVKGNKIDDIEWTPSAGGSAGGSAGG [r7_611_TrROS] | < -1
SAGGSAGGSAGGKIKLAAANPKVAKELAKILEKELEEKGYKLKPNLKIEVLPAKPDPKLASAGGSAGGSAGG [r7_965_TrMRF] | < -1
SAGGSAGGSAGGKKKKIKLFIDHYFDGPPNINPEKIEKELKEKGIDVEVVLNALPKENKKSAGGSAGGSAGG [r7_355_TrMRF] | < -1
SAGGSAGGSAGGKSPLEKLRELAKKNPNVTVYVEKTGKEVKVPSIEELLEKGYKIVKIEKSAGGSAGGSAGG [r7_504_TrROS_Hall] | < -1
SAGGSAGGSAGGKVIHIPAGDAKTFIKEALEKDKDQPIVIHMYNPDGKEYSTMEVKIKPSAGGSAGGSAGGS [r10_741_TrROS] | < -1
SAGGSAGGSAGGMALEPKTVTSTLTVFFPDTGKTYPLTETVFIPTKFNLPLPPFPPETLSAGGSAGGSAGGS [r10_1026_JUSTAS] | < -1
SAGGSAGGSAGGMEVREVVEETPETLVVRTVRFYPDGSVEVLEEERIPLPPPELTPRNLLSAGGSAGGSAGG [r11_843_JUSTAS] | < -1
SAGGSAGGSAGGMIHIDPTPNGWKASVMNPNNGKPREIPFPPDNIPKLIPKGIDYVHIHPSAGGSAGGSAGG [r7_266_TrROS] | < -1
SAGGSAGGSAGGMIYPPDEVLEKTTKVEVELPNETGKTITKTIVTKTYAESGKSTIETAGSAGGSAGGSAGG [r17_266_JUSTAS] | < -1
SAGGSAGGSAGGMKITVKTSYDPSRPVFYEEVYPPGGEPISRKVIEIPPAEPKLIEELLSAGGSAGGSAGGS [r10_717_JUSTAS] | < -1
SAGGSAGGSAGGMKPYRIGNGAWLYVNPDDSVRIYNPGNGQKRTIPIGKPQPIRLPKNAISAGGSAGGSAGG [r7_299_TrROS] | < -1
SAGGSAGGSAGGMKVETRTITDPGGIEKVKEDYPGYTVEKTEKLPDGSTKVTLKYPILKSAGGSAGGSAGGS [r10_764_JUSTAS] | < -1
SAGGSAGGSAGGMLPIPKIEVKPGDEEEAKKTKEKLKKELEEKLGKKAKNLKVDFNPSLSAGGSAGGSAGGS [r10_1216_JUSTAS] | < -1
SAGGSAGGSAGGMTAVVTEPRLENGKEYLVRTVREFPSAEPRPGAVLEEEVVPLDVPLESAGGSAGGSAGGS [r10_730_JUSTAS] | < -1
SAGGSAGGSAGGMTETIPVSPSELDEVIEEAKKKGLKKIVLKDPNSSKKTVITKDKVEDESAGGSAGGSAGG [r7_564_JUSTAS] | < -1

Sequence | folding stability dG unfold [kcal/mol]
SAGGSAGGSAGGMTTTVIEVDVEPGEVSEEEIKKRLAPLTGKPIEITTDPSGIPVITVEESAGGSAGGSAGG [r7_330_JUSTAS] | < -1
SAGGSAGGSAGGMVLELEGLGEEEIKALVREIPEDEPVTFVIKSKNNKTSVIPSEEILESAGGSAGGSAGGS [r10_732_JUSTAS] | < -1
SAGGSAGGSAGGNPGQEVTYQIKIPIRDKNGEPDWKIDIPVTMDTPQDADRFAKEIAKRSAGGSAGGSAGGS [r10_57_TrROS] | < -1
SAGGSAGGSAGGPEPIPVKISMWNPNGKPMGTFEFPIETPEDLDEFAREDGMPFRVEPESAGGSAGGSAGGS [r10_958_TrROS] | < -1
SAGGSAGGSAGGPETRVVYEPLPDGTSKIVEVEAAEDYVTVPVPFPNGGEAVFTVKPGELSAGGSAGGSAGG [r7_829_TrMRF] | < -1
SAGGSAGGSAGGPEWKEVPFTLRMPDGEPMDAKVYIDPEGPLEIENDDKWHTFPADQLKSAGGSAGGSAGGS [r10_649_TrROS] | < -1
SAGGSAGGSAGGPTVKVKKVELAPETGYAVVHFEVELEGEPKVVEGELVLPLPPPLDAPSAGGSAGGSAGGS [r10_541_TrMRF] | < -1
SAGGSAGGSAGGSGLKELREEAAKGKKFIVRTTVPLKEYEFDLKDLDKFEDHDIIVEPRSAGGSAGGSAGGS [r4_157_TrMRF] | < -1
SAGGSAGGSAGGSLALVRFPGDDRLFSVPVPEDLEAELVLPTPDGRPVGVRLFRVRDPRESAGGSAGGSAGG [r7_19_TrMRF] | < -1
SAGGSAGGSAGGSLNISVSSEPLPGDLLVEKGEFPSPKTLTTLVEPGTGVVTTTTEAASSAGGSAGGSAGGS [r10_237_JUSTAS] | < -1
SAGGSAGGSAGGSMITTEEFTDKEEAVEKAKKTPGVEKVEVKTTPSDKYVVIIYKPPLKSAGGSAGGSAGGS [r4_1_JUSTAS] | < -1
SAGGSAGGSAGGSMPTATLVEKEKDPVEDIITYKINTPPDKTEIIKYSPENPISESDIISAGGSAGGSAGGS [r4_481_JUSTAS] | < -1
SAGGSAGGSAGGSMSWDDRPPVISTSVVKLPIEPGTVVKEGSKTYVAKPDGTVTVIDPRSAGGSAGGSAGGS [r4_394_JUSTAS] | < -1
SAGGSAGGSAGGSMTPITTTEEVDPDFKEETIKVKNFPATTTPIPEENKRTTTIPTSLFSAGGSAGGSAGGS [r4_430_JUSTAS] | < -1
SAGGSAGGSAGGSPELVPVSTEVVELETESVLELEESKVEVKERLEIVVKRLTKEGLGLESAGGSAGGSAGG [r7_485_JUSTAS] | < -1
SAGGSAGGSAGGSPPIRIRFPNNGKTIPIDGPDDLKDYLRDNGLPIDPDDLDKIDEVEWSAGGSAGGSAGGS [r4_104_TrROS] | < -1
SAGGSAGGSAGGSPVYTLERTLPDGRPVRIEISGDEATITLESPEGGERTEKVSRSEILESAGGSAGGSAGG [r7_653_JUSTAS] | < -1
SAGGSAGGSAGGSRIHIEPDNNNYRIKNRNPGGKKEEFPFDSLEDLKDLPPGFPVEIYDSAGGSAGGSAGGS [r4_447_TrROS] | < -1
SAGGSAGGSAGGSSKLVTITRGNSKTLLTLKPDEPVLLPGSDSSVSVNEGSAVNISGNKLSAGGSAGGSAGG [r7_853_JUSTAS] | < -1
SAGGSAGGSAGGSSTVLETEVTPTSEPRLLTKTLIEEFPPDNPEKPVLSVKETVLPVLLSAGGSAGGSAGGS [r4_265_JUSTAS] | < -1
SAGGSAGGSAGGSTKSINFKNPSNIRDALREAQDEGVKPVVIYFPDGKTRKIPPGDPITSAGGSAGGSAGGS [r4_260_TrROS] | < -1
SAGGSAGGSAGGSTVLRLERVPGTGLLVERLVTPSGSGYSVEVTVRPVGEEEREALPLGSAGGSAGGSAGGS [r10_291_JUSTAS] | < -1
SAGGSAGGSAGGTIEGLPKEQLRDIFKDHGMPPDEFPPGQPVQFNIPNKNPIKVRVTDLSAGGSAGGSAGGS [r10_623_TrROS] | < -1
SAGGSAGGSAGGWLKGMPFKITKITDVRRNPENGRRWLTIRMPNPNRPVTVPLDDLPPGLSAGGSAGGSAGG [r7_304_TrROS] | < -1
SAGGSAGGSAGGYRIKIKMPNGRPREIPLEPDDPEEVKEQAKELSSRGYDVTKVEVEPPSAGGSAGGSAGGS [r10_231_TrROS] | < -1
SAGGSAGGSAGITITQNPDGPVRIMWKHPNGKPVNEGDIKPDEAEKFADKNGMRPVSIEPSAGGSAGGSAGG [r11_521_TrROS] | < -1
